The values that follow come from patent publication US9175045B2, “Peptidomimetic macrocycles” (Aileron Therapeutics, Inc., priority 2008, dated 2015).

Bridge positions count the residues as written; N and C are the ends. Square brackets hold non-standard residues; d marks the D form. * marks the point of attachment. S5 = C=CCCC[C@](C)(N)C(=O)O; Nle = CCCC[C@H](N)C(=O)O; Aib = CC(C)(N)C(=O)O; Propionyl = CCC(=O)*

In assay [1] the target is T1, human serum proteins (binding ascribed fully to human serum albumin, HSA) (human, UniProt P02768 25-609). The assay can be described thus: cell-based or functional assay.
Assay [2] has as its target T1, human serum proteins (binding ascribed …). The assay can be described thus: apparent Kd* by EC50 shift analysis: Jurkat viability EC50 at 0, 2 and 10% human serum, fit assuming 1:1 binding to HSA.

T1 sequence (P02768 25-609 limits assumed): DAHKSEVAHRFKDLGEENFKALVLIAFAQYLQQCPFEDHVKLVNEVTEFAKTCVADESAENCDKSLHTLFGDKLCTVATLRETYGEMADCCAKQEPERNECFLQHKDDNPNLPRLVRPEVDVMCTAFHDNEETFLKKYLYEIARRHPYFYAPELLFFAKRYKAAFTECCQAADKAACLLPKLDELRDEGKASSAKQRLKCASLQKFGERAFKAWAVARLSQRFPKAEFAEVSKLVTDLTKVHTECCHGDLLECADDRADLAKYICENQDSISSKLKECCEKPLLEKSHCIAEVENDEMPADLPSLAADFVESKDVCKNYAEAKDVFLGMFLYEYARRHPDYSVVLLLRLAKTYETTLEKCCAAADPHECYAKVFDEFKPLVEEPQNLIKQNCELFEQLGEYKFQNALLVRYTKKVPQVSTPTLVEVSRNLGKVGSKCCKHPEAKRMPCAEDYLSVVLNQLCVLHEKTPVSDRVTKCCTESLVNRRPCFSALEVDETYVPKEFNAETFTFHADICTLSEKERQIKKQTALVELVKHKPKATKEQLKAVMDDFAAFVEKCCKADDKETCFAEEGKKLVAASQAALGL

Ac-DAARNIARHLA[S5]V[Aib]D[S5][Nle]ARSI-NH2 (staple 12-16) [Compound 2 (crosslinked polypeptide derived from human BID BH3)]: in assay [1], the “2% serum EC50 (Jurkat cell viability, CellTiter-Glo)” value (shortened to “2% serum EC50”) is 20.5 µM and the “10% serum EC50 (Jurkat cell viability, CellTiter-Glo)” value (“10% serum EC50” for short) was 97.1 µM. Further, in assay [2], the Kd is less than 0.1 µM.
As to Ac-DAIRNIARHLA[S5]V[Aib]D[S5][Nle]ARSI-NH2 (staple 12-16) [Compound 4 (crosslinked polypeptide derived from human BID BH3)], in assay [1], the “2% serum EC50” value was determined as 11.3 µM and the “10% serum EC50” value is 73.1 µM. In assay [2], the Kd is less than 0.1 µM.
In the same order, the values of Ac-DIARNIARHLA[S5]V[Aib]D[S5][Nle]ARSI-NH2 (staple 12-16) [Compound 3 (crosslinked polypeptide derived from human BID BH3)] are 14.9 µM, 88.9 µM and less than 0.1 µM.
Regarding Propionyl-RNIARHLA[S5]VGD[S5][Nle][Aib]RSI-NH2 (staple 9-13) [Compound 8 (crosslinked polypeptide derived from human BID BH3)], in assay [1], the “2% serum EC50” value was 10.5 µM and the “10% serum EC50” value worked out at 37.7 µM. Also, the Kd in assay [2] turned out to be 2.3 µM.
For the molecule Ac-ERLRRRI[S5]LCR[S5]HHST-NH2 (staple 8-12, also called hMAML) [Compound 17 (crosslinked polypeptide derived from human MAML peptide sequence)], in assay [1], the “2% serum EC50” value turned out to be 55.1 µM and the “10% serum EC50” value is greater than 100 µM. Also, the Kd in assay [2] was less than 0.1 µM.
In the same order, the values of Ac-ERLRRRI[S5]LAR[S5]HHST-NH2 (staple 8-12, also called hMAML) [Compound 18 (crosslinked polypeptide derived from human MAML peptide sequence)] are greater than 100 µM, greater than 100 µM and less than 0.1 µM.
With Propionyl-RNI[Aib]RHL[Aib][S5]V[Aib]D[S5]AARSI-NH2 (staple 9-13) [Compound 9 (crosslinked polypeptide derived from human BID BH3)], in assay [1], the “2% serum EC50” value was found to be 5.6 µM and the “10% serum EC50” value was 20.2 µM. Moreover, the Kd in assay [2] came out at 2.9 µM.

B1: Compound 12 (crosslinked polypeptide derived from human BIM BH3) (peptide)
peptide: IWIAQALRXIGDXFNAYYARR
modifications: N-terminal acetyl (Ac); C-terminal amide (NH2); $ at 9 and 13 (alpha-methyl amino acids joined by an all-carbon eight-carbon crosslinker with a double bond)
Consider B1, for which, in assay [1], the “2% serum EC50” value stood at 8.6 µM and the “10% serum EC50” value came out at 26.5 µM. For the same molecule, the Kd in assay [2] turned out to be 2.3 µM.
With Ac-IWIAQALR[S5]IGN[S5]FNAYYARR-NH2 (staple 9-13) [Compound 16 (crosslinked polypeptide derived from human BIM BH3)], in assay [1], the “2% serum EC50” value stood at 2.3 µM and the “10% serum EC50” value came out at 9.3 µM. Besides, the Kd in assay [2] was found to be 3.5 µM.
As to Ac-IWIAQQLR[S5]IGD[S5]FNAYYARR-NH2 (staple 9-13) [Compound 11 (crosslinked polypeptide derived from human BIM BH3)], in assay [1], the “2% serum EC50” value came out at 7.9 µM and the “10% serum EC50” value is 37.6 µM. Moreover, in assay [2], the Kd was 1.1 µM.
As to Ac-RWIAQQLR[S5]IGD[S5]FNAYYARR-NH2 (staple 9-13) [Compound 13 (crosslinked polypeptide derived from human BIM BH3)], in assay [1], the “2% serum EC50” value amounted to 5.4 µM and the “10% serum EC50” value is 21.5 µM. In addition, the Kd in assay [2] was 3.8 µM.
Take Ac-RWIAQALR[S5]IGD[S5]FNAFYARR-NH2 (staple 9-13) [Compound 14 (crosslinked polypeptide derived from human BIM BH3)]: in assay [1], the “2% serum EC50” value worked out at 2.8 µM and the “10% serum EC50” value came to 10.8 µM. Further, the Kd in assay [2] was found to be 2.3 µM.
Consider Ac-RWIAQALR[S5]IGN[S5]FNAYYARR-NH2 (staple 9-13) [Compound 15 (crosslinked polypeptide derived from human BIM BH3)], for which, in assay [1], the “2% serum EC50” value was determined as 2.6 µM and the “10% serum EC50” value amounted to 11.5 µM. The Kd in assay [2] worked out at 5.1 µM.
